This is an account of results in article PMC5748976 (The Journal of Cell Biology, 2018).

Assay [1] has as its target recombinant His-tagged Pyk2 (proline-rich tyrosine kinase 2) (UniProt Q14289 1-1009). Briefly: pull-down.
The target in assay [2] is recombinant His-tagged FAK (focal adhesion kinase) (UniProt Q05397 1-1052). Briefly: pull-down.
recombinant His-tagged FAK (focal adhesion kinase), sequence (Q05397 whole entry): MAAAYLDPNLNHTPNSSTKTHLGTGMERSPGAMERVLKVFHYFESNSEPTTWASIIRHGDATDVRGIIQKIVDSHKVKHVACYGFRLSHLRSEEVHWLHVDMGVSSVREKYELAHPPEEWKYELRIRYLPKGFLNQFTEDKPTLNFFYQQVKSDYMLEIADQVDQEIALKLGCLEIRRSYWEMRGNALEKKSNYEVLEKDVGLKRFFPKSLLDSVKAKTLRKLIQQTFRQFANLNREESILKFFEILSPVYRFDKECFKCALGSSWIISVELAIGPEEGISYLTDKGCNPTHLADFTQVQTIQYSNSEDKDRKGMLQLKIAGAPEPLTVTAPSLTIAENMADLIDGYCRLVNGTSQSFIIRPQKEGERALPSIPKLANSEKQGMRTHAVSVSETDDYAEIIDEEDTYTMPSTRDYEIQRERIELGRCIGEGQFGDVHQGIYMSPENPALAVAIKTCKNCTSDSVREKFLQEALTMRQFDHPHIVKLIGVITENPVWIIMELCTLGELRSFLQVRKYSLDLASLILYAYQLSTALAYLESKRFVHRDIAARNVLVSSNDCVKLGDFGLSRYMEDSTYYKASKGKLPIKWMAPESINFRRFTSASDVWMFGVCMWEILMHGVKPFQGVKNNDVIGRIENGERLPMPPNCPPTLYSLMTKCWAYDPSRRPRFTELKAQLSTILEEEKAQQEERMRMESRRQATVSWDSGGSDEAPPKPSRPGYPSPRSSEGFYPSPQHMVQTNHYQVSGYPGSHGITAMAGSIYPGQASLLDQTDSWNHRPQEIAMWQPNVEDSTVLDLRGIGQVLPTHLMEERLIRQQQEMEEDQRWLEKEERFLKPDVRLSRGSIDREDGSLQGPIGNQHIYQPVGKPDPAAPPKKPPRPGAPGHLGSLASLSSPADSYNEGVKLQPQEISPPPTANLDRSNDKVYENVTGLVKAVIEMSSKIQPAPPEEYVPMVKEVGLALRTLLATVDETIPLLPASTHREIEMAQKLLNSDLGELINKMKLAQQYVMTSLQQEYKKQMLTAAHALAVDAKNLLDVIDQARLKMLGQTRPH

recombinant His-tagged Pyk2 (proline-rich tyrosine kinase 2), sequence (Q14289 whole entry): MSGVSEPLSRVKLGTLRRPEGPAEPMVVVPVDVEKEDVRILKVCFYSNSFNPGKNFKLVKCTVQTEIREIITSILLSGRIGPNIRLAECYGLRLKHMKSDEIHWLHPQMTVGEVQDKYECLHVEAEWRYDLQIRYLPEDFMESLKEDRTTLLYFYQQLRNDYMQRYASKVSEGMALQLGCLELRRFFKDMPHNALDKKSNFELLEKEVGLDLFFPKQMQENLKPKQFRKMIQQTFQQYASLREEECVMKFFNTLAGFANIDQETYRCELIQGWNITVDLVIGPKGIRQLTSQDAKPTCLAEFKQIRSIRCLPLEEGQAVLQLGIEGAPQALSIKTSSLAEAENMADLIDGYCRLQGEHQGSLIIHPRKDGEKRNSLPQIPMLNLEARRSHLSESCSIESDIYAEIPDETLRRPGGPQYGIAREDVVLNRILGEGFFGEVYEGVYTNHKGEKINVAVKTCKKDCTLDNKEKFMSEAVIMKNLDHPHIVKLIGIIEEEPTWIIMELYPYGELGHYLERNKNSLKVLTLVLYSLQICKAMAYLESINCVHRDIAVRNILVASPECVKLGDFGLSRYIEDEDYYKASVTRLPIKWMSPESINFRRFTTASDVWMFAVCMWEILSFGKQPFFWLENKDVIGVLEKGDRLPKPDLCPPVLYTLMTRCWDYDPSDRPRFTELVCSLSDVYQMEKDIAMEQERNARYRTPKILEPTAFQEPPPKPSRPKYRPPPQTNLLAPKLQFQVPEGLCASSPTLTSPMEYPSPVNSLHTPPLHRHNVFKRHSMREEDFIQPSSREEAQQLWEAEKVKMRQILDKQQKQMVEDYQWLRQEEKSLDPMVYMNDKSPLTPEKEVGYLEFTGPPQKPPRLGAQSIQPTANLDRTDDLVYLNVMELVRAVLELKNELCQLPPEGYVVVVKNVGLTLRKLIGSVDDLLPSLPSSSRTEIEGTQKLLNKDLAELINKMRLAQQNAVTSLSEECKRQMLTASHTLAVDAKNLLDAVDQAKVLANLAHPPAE

B1: recombinant His-tagged cortactin (natural protein)
chain: not shown
Consider B1, for which the Kd in assay [1] worked out at 490 ± 138 nM; in assay [2], 2160 ± 683 nM.

One may read the Kd as the constant that tells how readily two partners part at equilibrium.
